T1: human GIP receptor (human, UniProt P48546 22-466)
T1 sequence (looked up): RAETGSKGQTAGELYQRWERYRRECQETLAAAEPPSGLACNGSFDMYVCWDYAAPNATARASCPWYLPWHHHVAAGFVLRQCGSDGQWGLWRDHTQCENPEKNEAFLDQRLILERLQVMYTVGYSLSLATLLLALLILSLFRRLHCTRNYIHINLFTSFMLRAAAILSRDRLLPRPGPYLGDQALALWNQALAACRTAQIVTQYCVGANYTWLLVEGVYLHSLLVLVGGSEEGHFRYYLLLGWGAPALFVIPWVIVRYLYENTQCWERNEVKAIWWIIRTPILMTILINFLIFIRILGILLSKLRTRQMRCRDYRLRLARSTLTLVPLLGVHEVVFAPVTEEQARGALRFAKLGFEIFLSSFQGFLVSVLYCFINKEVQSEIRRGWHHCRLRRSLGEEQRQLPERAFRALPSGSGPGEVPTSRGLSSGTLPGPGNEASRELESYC

B1: SEQ ID NO: 15 (peptide)
peptide: Y[Aib]EGTFTSDLSIQK([γGlu-Stearoyl])EKRAA[Aib]EFIEWLKNTGPSSGAPPPS-NH2
modifications: N-terminus assumed
SMILES: CCCCCCCCCCCCCCCCCC(=O)N[C@@H](CCC(=O)NCCCC[C@H](NC(=O)[C@H](CCC(N)=O)NC(=O)[C@@H](NC(=O)[C@H](CO)NC(=O)[C@H](CC(C)C)NC(=O)[C@H](CC(=O)O)NC(=O)[C@H](CO)NC(=O)[C@@H](NC(=O)[C@H](Cc1ccccc1)NC(=O)[C@@H](NC(=O)CNC(=O)[C@H](CCC(=O)O)NC(=O)C(C)(C)NC(=O)[C@@H](N)Cc1ccc(O)cc1)[C@@H](C)O)[C@@H](C)O)[C@@H](C)CC)C(=O)N[C@@H](CCC(=O)O)C(=O)N[C@@H](CCCCN)C(=O)N[C@@H](CCCNC(=N)N)C(=O)N[C@@H](C)C(=O)N[C@@H](C)C(=O)NC(C)(C)C(=O)N[C@@H](CCC(=O)O)C(=O)N[C@@H](Cc1ccccc1)C(=O)N[C@H](C(=O)N[C@@H](CCC(=O)O)C(=O)N[C@@H](Cc1c[nH]c2ccccc12)C(=O)N[C@@H](CC(C)C)C(=O)N[C@@H](CCCCN)C(=O)N[C@@H](CC(N)=O)C(=O)N[C@H](C(=O)NCC(=O)N1CCC[C@H]1C(=O)N[C@@H](CO)C(=O)N[C@@H](CO)C(=O)NCC(=O)N[C@@H](C)C(=O)N1CCC[C@H]1C(=O)N1CCC[C@H]1C(=O)N1CCC[C@H]1C(=O)N[C@@H](CO)C(N)=O)[C@@H](C)O)[C@@H](C)CC)C(=O)O
B2: SEQ ID NO: 38 (peptide)
peptide: Y[Aib]QGTFTSDLSIQK([γGlu-Palmitoyl])DKRAA[Aib]EFIEWLKNTGPSSGAPPPS-NH2
modifications: N-terminus assumed
SMILES: CCCCCCCCCCCCCCCC(=O)N[C@@H](CCC(=O)NCCCC[C@H](NC(=O)[C@H](CCC(N)=O)NC(=O)[C@@H](NC(=O)[C@H](CO)NC(=O)[C@H](CC(C)C)NC(=O)[C@H](CC(=O)O)NC(=O)[C@H](CO)NC(=O)[C@@H](NC(=O)[C@H](Cc1ccccc1)NC(=O)[C@@H](NC(=O)CNC(=O)[C@H](CCC(N)=O)NC(=O)C(C)(C)NC(=O)[C@@H](N)Cc1ccc(O)cc1)[C@@H](C)O)[C@@H](C)O)[C@@H](C)CC)C(=O)N[C@@H](CC(=O)O)C(=O)N[C@@H](CCCCN)C(=O)N[C@@H](CCCNC(=N)N)C(=O)N[C@@H](C)C(=O)N[C@@H](C)C(=O)NC(C)(C)C(=O)N[C@@H](CCC(=O)O)C(=O)N[C@@H](Cc1ccccc1)C(=O)N[C@H](C(=O)N[C@@H](CCC(=O)O)C(=O)N[C@@H](Cc1c[nH]c2ccccc12)C(=O)N[C@@H](CC(C)C)C(=O)N[C@@H](CCCCN)C(=O)N[C@@H](CC(N)=O)C(=O)N[C@H](C(=O)NCC(=O)N1CCC[C@H]1C(=O)N[C@@H](CO)C(=O)N[C@@H](CO)C(=O)NCC(=O)N[C@@H](C)C(=O)N1CCC[C@H]1C(=O)N1CCC[C@H]1C(=O)N1CCC[C@H]1C(=O)N[C@@H](CO)C(N)=O)[C@@H](C)O)[C@@H](C)CC)C(=O)O
B3: SEQ ID NO: 8 (peptide)
peptide: Y[Aib]QGTFTSDLSIQK([γGlu-Palmitoyl])EKRAA[Aib]EFIEWLKNTGPSSGAPPPS-NH2
modifications: N-terminus assumed
SMILES: CCCCCCCCCCCCCCCC(=O)N[C@@H](CCC(=O)NCCCC[C@H](NC(=O)[C@H](CCC(N)=O)NC(=O)[C@@H](NC(=O)[C@H](CO)NC(=O)[C@H](CC(C)C)NC(=O)[C@H](CC(=O)O)NC(=O)[C@H](CO)NC(=O)[C@@H](NC(=O)[C@H](Cc1ccccc1)NC(=O)[C@@H](NC(=O)CNC(=O)[C@H](CCC(N)=O)NC(=O)C(C)(C)NC(=O)[C@@H](N)Cc1ccc(O)cc1)[C@@H](C)O)[C@@H](C)O)[C@@H](C)CC)C(=O)N[C@@H](CCC(=O)O)C(=O)N[C@@H](CCCCN)C(=O)N[C@@H](CCCNC(=N)N)C(=O)N[C@@H](C)C(=O)N[C@@H](C)C(=O)NC(C)(C)C(=O)N[C@@H](CCC(=O)O)C(=O)N[C@@H](Cc1ccccc1)C(=O)N[C@H](C(=O)N[C@@H](CCC(=O)O)C(=O)N[C@@H](Cc1c[nH]c2ccccc12)C(=O)N[C@@H](CC(C)C)C(=O)N[C@@H](CCCCN)C(=O)N[C@@H](CC(N)=O)C(=O)N[C@H](C(=O)NCC(=O)N1CCC[C@H]1C(=O)N[C@@H](CO)C(=O)N[C@@H](CO)C(=O)NCC(=O)N[C@@H](C)C(=O)N1CCC[C@H]1C(=O)N1CCC[C@H]1C(=O)N1CCC[C@H]1C(=O)N[C@@H](CO)C(N)=O)[C@@H](C)O)[C@@H](C)CC)C(=O)O
B4: SEQ ID NO: 18 (peptide)
peptide: Y[Aib]EGTFTSDLSIQK([βAla-βAla-Stearoyl])EKRAA[Aib]EFIEWLKNTGPSSGAPPPS-NH2
modifications: N-terminus assumed
SMILES: CCCCCCCCCCCCCCCCCC(=O)NCCC(=O)NCCC(=O)NCCCC[C@H](NC(=O)[C@H](CCC(N)=O)NC(=O)[C@@H](NC(=O)[C@H](CO)NC(=O)[C@H](CC(C)C)NC(=O)[C@H](CC(=O)O)NC(=O)[C@H](CO)NC(=O)[C@@H](NC(=O)[C@H](Cc1ccccc1)NC(=O)[C@@H](NC(=O)CNC(=O)[C@H](CCC(=O)O)NC(=O)C(C)(C)NC(=O)[C@@H](N)Cc1ccc(O)cc1)[C@@H](C)O)[C@@H](C)O)[C@@H](C)CC)C(=O)N[C@@H](CCC(=O)O)C(=O)N[C@@H](CCCCN)C(=O)N[C@@H](CCCNC(=N)N)C(=O)N[C@@H](C)C(=O)N[C@@H](C)C(=O)NC(C)(C)C(=O)N[C@@H](CCC(=O)O)C(=O)N[C@@H](Cc1ccccc1)C(=O)N[C@H](C(=O)N[C@@H](CCC(=O)O)C(=O)N[C@@H](Cc1c[nH]c2ccccc12)C(=O)N[C@@H](CC(C)C)C(=O)N[C@@H](CCCCN)C(=O)N[C@@H](CC(N)=O)C(=O)N[C@H](C(=O)NCC(=O)N1CCC[C@H]1C(=O)N[C@@H](CO)C(=O)N[C@@H](CO)C(=O)NCC(=O)N[C@@H](C)C(=O)N1CCC[C@H]1C(=O)N1CCC[C@H]1C(=O)N1CCC[C@H]1C(=O)N[C@@H](CO)C(N)=O)[C@@H](C)O)[C@@H](C)CC

*1 amine or outer side, *2 acyl side, *3 side chain or, on linkers, in order; H or OH if unused. Where no end group is shown, it is not given here. Side-chain parts run from the residue outwards. [ ]: non-standard residue; d: D form. The star is where a group is joined. γGlu = O=C(O)[C@H](CCC(=O)[*:2])N[*:1]; Stearoyl = CCCCCCCCCCCCCCCCCC(=O)*; Palmitoyl = CCCCCCCCCCCCCCCC(=O)*; Aib = CC(C)(N)C(=O)O; βAla = NCCC(=O)O

The target of the first experiment is T1, human GIP receptor. The experiment can be described thus: cell-based or functional assay.
For the molecule B1, the “EC50 hGIP R [pM]” value came out at 8.2 pM.

Consider B2, for which the “EC50 hGIP R [pM]” value was determined as 11.2 pM.

Consider B3, for which the “EC50 hGIP R [pM]” value was 9.8 pM.

For a further experiment, the target named is human glucagon receptor (human, UniProt P47871 26-477). The experiment can be described thus: cell-based or functional assay.
Chain of human glucagon receptor (P47871 26-477): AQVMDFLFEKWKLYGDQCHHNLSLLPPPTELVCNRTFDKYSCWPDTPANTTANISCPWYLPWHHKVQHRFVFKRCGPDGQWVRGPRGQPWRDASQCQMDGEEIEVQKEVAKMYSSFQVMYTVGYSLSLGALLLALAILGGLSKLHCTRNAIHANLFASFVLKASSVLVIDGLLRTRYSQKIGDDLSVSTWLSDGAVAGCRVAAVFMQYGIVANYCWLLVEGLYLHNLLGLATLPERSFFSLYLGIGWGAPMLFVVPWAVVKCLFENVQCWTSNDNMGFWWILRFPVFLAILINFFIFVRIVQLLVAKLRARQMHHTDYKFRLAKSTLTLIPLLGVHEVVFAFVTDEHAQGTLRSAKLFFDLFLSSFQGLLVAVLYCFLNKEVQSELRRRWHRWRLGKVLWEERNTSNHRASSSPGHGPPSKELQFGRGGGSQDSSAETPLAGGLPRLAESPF
B1: the “EC50 hGLUC R [pM]” value worked out at 5810 pM.

Consider B2, for which the “EC50 hGLUC R [pM]” value came out at 11.4 pM.

Turning to B4, the “EC50 hGLUC R [pM]” value came out at 4950 pM.

With B3, the “EC50 hGLUC R [pM]” value is 18.3 pM.

Another experiment has as its target human GLP-1 receptor (human, UniProt P43220 24-463). The experiment can be described thus: cell-based or functional assay.
Turning to B2, the “EC50 hGLP-1 R [pM]” value was 6.7 pM.

Turning to B4, the “EC50 hGLP-1 R [pM]” value is 7.6 pM.

With B3, the “EC50 hGLP-1 R [pM]” value came to 5.3 pM.
